Results published in the supplement of paper PMC9170038.

Tested on: MS2 coat protein
Assay: apparent KD of MS2 coat protein; designed switch direction (-1 OFF switch, 1 ON switch): -1; higher = weaker reporter binding
In short: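 SNAP-549-labelled MS2 coat protein was titrated, doubling from 0.7 or 1.5 nM to 3 µM, over designed RNA switches transcribed on Illumina chips by stalled E. coli RNA polymerase. Runs were done without input, with 200 uM small-molecule ligand, or with an oligonucleotide input. Apparent KD is the per-design median over clusters of curve-fitted normalised fluorescence.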

[1] = input ligand: microRNA oligo, concentration not stated
[2] = Eterna round: R95, input ligand: microRNA oligo, concentration not stated

## AGACAUGAGGAUCACCCAUGUAGUGGUCCUGGUACGCGAACGUAGGAUAUAUACUGGAUUCCAAUGUAGAAGGACGACACCGCG [Tetege] (Eterna round: R96, puzzle: Exclusion NG 3)
Input ligand: FMN 200 uM
  apparent KD of MS2 coat protein: 90 nM
[1]
  apparent KD of MS2 coat protein: 112 nM
Input ligand: none
  apparent KD of MS2 coat protein: 149 nM

## AGACUUAUAGGAUAUACAUGAGGAUCACCCAUGUCGCCAGGCGGUAGCAGAGUCUUUUGUAGAAGGAUGACAAC [Eternabot (Original) Solution 35] (Eterna round: R97, puzzle: Exclusion 3)
Input ligand: FMN 200 uM
  apparent KD of MS2 coat protein: 20.6 nM
Input ligand: none
  apparent KD of MS2 coat protein: 21.2 nM

## AGAGACAAUCUAGGAUAUGUGUAUGAAGAGUGCGCAGAAGGAGACAUGAGGAUCACCCAUGUACAGCGACAGAAGACGACAACC [Matt's Exclusion 2] (Eterna round: R96, puzzle: Exclusion NG 1)
Input ligand: FMN 200 uM
  apparent KD of MS2 coat protein: 14.4 nM
[1]
  apparent KD of MS2 coat protein: 36.2 nM
Input ligand: none
  apparent KD of MS2 coat protein: 17.5 nM

## AGAGAGAUAGGAUAUACGUGGUUUUCUCAGGUCUAAGUUCAACAUGAGGAUCACCCAUGUAGAAGGAUCAAAAG [EX2 C.14] (Eterna round: R97, puzzle: Exclusion 2)
Input ligand: FMN 200 uM
  apparent KD of MS2 coat protein: 690 nM
Input ligand: none
  apparent KD of MS2 coat protein: 156 nM

## AGAGAGUCAGGAUAUCGAAGGGAGAGAAAAGGAGAGAGGUACGAGAAGGGACAUGAGGAUCACCCAUGUAGGUG [JR_Exclusion4)Sub015] (puzzle: Exclusion 4)
Eterna round: R95, input ligand: FMN 200 uM
  apparent KD of MS2 coat protein: 279 nM
[2]
  apparent KD of MS2 coat protein: 413 nM
Eterna round: R95, input ligand: none
  apparent KD of MS2 coat protein: 622 nM

## AGAGUGCUGCGAGGAUAUACAUGAGGAUCACCCAUGUAAAAGUGUGAGGCAAAGCCUCACACUAUGUAGAAGGCGCAGUACUCA [Mat - Exclusion NG 2 - Mod of JL - D11] (Eterna round: R96, puzzle: Exclusion NG 2)
Input ligand: FMN 200 uM
  apparent KD of MS2 coat protein: 20.2 nM
[1]
  apparent KD of MS2 coat protein: 12.6 nM
Input ligand: none
  apparent KD of MS2 coat protein: 19.3 nM

## AGAGUGCUGCGAGGAUAUACAUGAGGAUCACCCAUGUUAUCGUGUGAGGCUUUGCCUCACACGAAGUAGAAGGCGCAGUACUCA [Mat - Exclusion NG 2 - Mod of JL - D100] (Eterna round: R96, puzzle: Exclusion NG 2)
Input ligand: FMN 200 uM
  apparent KD of MS2 coat protein: 13.4 nM
[1]
  apparent KD of MS2 coat protein: 7.69 nM
Input ligand: none
  apparent KD of MS2 coat protein: 14.2 nM

## AGAGUGCUGCGAGGAUAUACAUGAGGAUCACCCAUGUUUUCCUGUGAGGCAUAGCCUCACAGGAUGUAGAAGGCGCAGUACUCA [Mat - Exclusion NG 2 - Mod of JL - D29] (Eterna round: R96, puzzle: Exclusion NG 2)
Input ligand: FMN 200 uM
  apparent KD of MS2 coat protein: 13.5 nM
[1]
  apparent KD of MS2 coat protein: 9.44 nM
Input ligand: none
  apparent KD of MS2 coat protein: 13.7 nM

## AGAGUGUGAGGAUAUAUGGUGAAGAUGAAGGGAUAGAAGGAGUAGAAGGUACAUGAGGAUCACCCAUGUUAGGA [JR_Exclu4_Sub076] (puzzle: Exclusion 4)
[2]
  apparent KD of MS2 coat protein: 23.1 nM

## AGAUAGAGCUGAGGAUAUGAGAAUAGAAAGAAAUCAGAAGGCAGACAUGAGGAUCACCCAUGUGAGUUCUUGAGAUUACAUGGU [Prohibition 43 - Jieux - Exclusion NG 1] (Eterna round: R96, puzzle: Exclusion NG 1)
Input ligand: FMN 200 uM
  apparent KD of MS2 coat protein: 498 nM
[1]
  apparent KD of MS2 coat protein: 221 nM
Input ligand: none
  apparent KD of MS2 coat protein: 247 nM

## AGAUCACAUGAGGAUCACCCAUGUCAGGAUAUCGACUGAUCAGCUUCGGCUGAUCAGUCGAGAAGGGACAAUUA [E1/1-A2] (Eterna round: R97, puzzle: Exclusion 1)
Input ligand: FMN 200 uM
  apparent KD of MS2 coat protein: 511 nM
Input ligand: none
  apparent KD of MS2 coat protein: 280 nM

## AGAUCACAUGAGGAUCACCCAUGUGAGGAUAUAGAUUCAAGAGCUUCGGCUCUAAAGUCUAGAAGGCACUAUGA [EX1 #47] (Eterna round: R97, puzzle: Exclusion 1)
Input ligand: FMN 200 uM
  apparent KD of MS2 coat protein: 29.1 nM
Input ligand: none
  apparent KD of MS2 coat protein: 25.4 nM

## AGAUCACAUGAGGAUCACCCAUGUGAGGAUAUGAUACUAUGUACUUCGGUACAUAGUAUCAGAAGGCAUAUGAA [Ex1-3: 73] (puzzle: Exclusion 1)
[2]
  apparent KD of MS2 coat protein: 28.9 nM

## AGAUCACAUGAGGAUCACCCAUGUGAGGAUAUGAUACUAUGUACUUCGGUACAUAGUAUCAGAAGGCAUGUGAA [Ex1-3: 74] (puzzle: Exclusion 1)
[2]
  apparent KD of MS2 coat protein: 42.7 nM
